Data published in patent US20120316071A1 (published 2012).
Where a chain is given by its changes, count along the chain named. Numbers in names are those of the source.

B1: Fab VH5-51_IGHD5-18*01>3_IGHJ4*01 G100T & V3-4_IGLJ1*01 (Fab, V domains shown)
VH: EVQLVQSGAEVKKPGESLKISCKGSGYSFTSYWIGWVRQMPGKGLEWMGIIYPGDSDTRYSPSFQGQVTISADKSISTAYLQWSSLKASDTAMYYCARRTYSYGYDYFDYWGQGTLVTVSS
VL: QTVVTQEPSFSVSPGGTVTLTCGLSSGSVSTSYYPSWYQQTPGQAPRTLIYSTNTRSSGVPDRFSGSILGNKAALTITGAQADDESDYYCVLYMGSGISYVFGTGTKVTVL
notes: Fab; VH-CH1 (His6/Flag, Plasmid A) and VL-lambda CL (Plasmid E)
B2: Fab VH5-51_IGHD5-18*01>3_IGHJ4*01 G104A & V3-4_IGLJ1*01 (Fab, V domains shown)
VH: B1 VH with T100G, G104A
VL: B1 VL
notes: as for B1
B3: Fab VH1-46_IGHD6-6*01_IGHJ1*01 S102A/S103P/S104F/H111F & L6_IGKJ1*01 S28N/S30D/S31H (Fab, V domains shown)
VH: QVQLVQSGAEVKKPGASVKVSCKASGYTFTSYYMHWVRQAPGQGLEWMGIINPSGGSTSYAQKFQGRVTMTRDTSTSTVYMELSSLRSEDTAVYYCAREEYAPFSAEYFQFWGQGTLVTVSS
VL: EIVLTQSPATLSLSPGERATLSCRASQNVDHYLAWYQQKPGQAPRLLIYDASNRATGIPARFSGSGSGTDFTLTISSLEPEDFAVYYCQQRSNWPPWTFGQGTKVEIKR
notes: Parental template of this NNK series; Fab with CH1 (plasmid A, His6 and Flag tags) and kappa CL (plasmid C); also called H:APFF & L:NDH; NDH
B4: Fab VH1-46_IGHD6-6*01_IGHJ1*01 S102A/S103P/S104F/H111F & L6_IGKJ1*01 S28N/S30D/S31H N53E (Fab, V domains shown)
VH: B3 VH
VL: B3 VL with N53E
notes: Fab with CH1 (plasmid A, His6 and Flag tags) and kappa CL (plasmid C); also called H:APFF & L:NDH N53E
B5: Fab VH1-46_IGHD6-6*01_IGHJ1*01 S102A/S103P/S104F/H111F & L6_IGKJ1*01 S28N/S30D/S31H N53G (Fab, V domains shown)
VH: B3 VH
VL: B3 VL with N53G
notes: Fab with CH1 (plasmid A, His6 and Flag tags) and kappa CL (plasmid C); also called H:APFF & L:NDH N53G
B6: Fab VH1-46_IGHD6-6*01_IGHJ1*01 S102A/S103P/S104F/H111F & L6_IGKJ1*01 S28N/S30D/S31H N53H (Fab, V domains shown)
VH: B3 VH
VL: B3 VL with N53H
notes: Fab with CH1 (plasmid A, His6 and Flag tags) and kappa CL (plasmid C); also called H:APFF & L:NDH N53H
B7: Fab VH1-46_IGHD6-6*01_IGHJ1*01 S102A/S103P/S104F/H111F & L6_IGKJ1*01 S28N/S30D/S31H N53M (Fab, V domains shown)
VH: B3 VH
VL: B3 VL with N53M
notes: Fab with CH1 (plasmid A, His6 and Flag tags) and kappa CL (plasmid C); also called H:APFF & L:NDH N53M
B8: Fab VH1-46_IGHD6-6*01_IGHJ1*01 S102A/S103P/S104F/H111F & L6_IGKJ1*01 S28N/S30D/S31H S52L (Fab, V domains shown)
VH: B3 VH
VL: B3 VL with S52L
notes: Fab made in E. coli; The rest is CH1 from plasmid A (His6 and Flag tags) and kappa CL from plasmid C; also called H:APFF & L:NDH S52L
B9: Fab VH1-46_IGHD6-6*01_IGHJ1*01 S102A/S103P/S104F/H111F & L6_IGKJ1*01 S28N/S30D/S31H S52M (Fab, V domains shown)
VH: B3 VH
VL: B3 VL with S52M
notes: Fab with CH1 (plasmid A, His6 and Flag tags) and kappa CL (plasmid C); also called H:APFF & L:NDH S52M
B10: Fab VH1-46_IGHD6-6*01_IGHJ1*01 S102A/S103P/S104F/H111F & L6_IGKJ1*01 S28N/S30D/S31H S52T (Fab, V domains shown)
VH: B3 VH
VL: B3 VL with S52T
notes: Fab with CH1 (plasmid A, His6 and Flag tags) and kappa CL (plasmid C); also called H:APFF & L:NDH S52T
B11: Fab VH1-46_IGHD6-6*01_IGHJ1*01 S102A/S103P/S104F/H111F & L6_IGKJ1*01 S28N/S30D/S31H S52W (Fab, V domains shown)
VH: B3 VH
VL: B3 VL with S52W
notes: Fab with CH1 (plasmid A, His6 and Flag tags) and kappa CL (plasmid C); also called H:APFF & L:NDH S52W
B12: Fab VH1-46_IGHD6-6*01_IGHJ1*01 S102A/S103P/S104F/H111F (APFF) & L6_IGKJ1*01 S31A (Fab, V domains shown)
VH: B3 VH
VL: B3 VL with N28S, D30S, H31A
notes: Tested as Fab (CH1 with His6/Flag tags, kappa CL) made in E. coli; also called APFF / S31A

Target: T1, Recombinant Human DLL4 (human, UniProt Q9NR61 27-524)
T1 construct: Bought recombinant human DLL4 (R&D Systems Cat#1506-D4/CF), coated on the plate; also called delta-like protein 4; rHuman DLL4
Experiment: ECL (MSD) 96-well plate assay, DLL4 coated at 30 ug/mL, Fab 0.1 uM; signal over blank

| Binder | Signal/Noise |
| --- | --- |
| B1 | 26 |
| B2 | 6.7 |

Target: T2, Recombinant Human DLL4 (delta-like protein 4) (human, UniProt Q9NR61 27-529)
T2 construct: Bought recombinant human DLL4 (R&D Systems Cat#1506-D4/CF); also called rHuman DLL4; Delta-like 4
Experiment: ELISA, DLL4 coated on plate, Fab in solution, absorbance at 450 nm

| Binder | ELISA (Avgerage signal-noise) |
| --- | --- |
| B3 | 0.165 |
| B4 | 0.204 |
| B5 | 0.163 |
| B6 | 0.23 |
| B7 | 0.162 |
| B8 | 0.285 |
| B9 | 0.185 |
| B10 | 0.263 |
| B11 | 0.177 |

Target: T1, Recombinant Human DLL4
Experiment: ECL (MSD) 96-well plate assay, DLL4 coated at 15 ug/mL, Fab 0.02 uM; signal over blank

| Binder | Signal/Noise |
| --- | --- |
| B1 | 11 |
| B2 | 2.6 |

Target: T2, Recombinant Human DLL4 (delta-like …)
Experiment: 96-well plate ECL binding assay, DLL4 immobilised, Fab in solution

| Binder | ECL signal |
| --- | --- |
| B3 | 18700 |
| B4 | 17600 |
| B5 | 20600 |
| B6 | 20100 |
| B7 | 17800 |
| B8 | 17800 |
| B9 | 19500 |
| B10 | 20100 |
| B11 | 16300 |

Target: T3, rHuman P-Cadherin/Fc Chimera, CF (R&D Systems Cat#861-PC) (human, UniProt P22223 108-654)
T3 construct: Bought recombinant protein
Experiment: ECL multispot (MSD) binding assay, antigen spotted on plate;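 further: purified Fab incubated 1 h at 20 °C on antigen spots, detected with TAG-labelled antibody, electrochemiluminescence compared with each well's blank, signal-to-blank ratio ≥4 counted as hit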

| Binder | ECL signal |
| --- | --- |
| B12 | 361 |

Target: T4, rHuman CD44/Fc Chimera, CF (R&D Systems Cat#3660-CD) (human, UniProt P16070 21-220)
T4 construct: Bought recombinant protein
Experiment: as above

| Binder | ECL signal |
| --- | --- |
| B12 | 406 |

Target: T5, rHuman HGF R/c-MET/Fc Chimera, CF (R&D Systems Cat#358-MT/CF) (human, UniProt P08581 25-932)
T5 construct: Bought recombinant protein; also called HGF R/Fc; hepatocyte growth factor receptor
T5 sequence (P08581 25-932, change not shown): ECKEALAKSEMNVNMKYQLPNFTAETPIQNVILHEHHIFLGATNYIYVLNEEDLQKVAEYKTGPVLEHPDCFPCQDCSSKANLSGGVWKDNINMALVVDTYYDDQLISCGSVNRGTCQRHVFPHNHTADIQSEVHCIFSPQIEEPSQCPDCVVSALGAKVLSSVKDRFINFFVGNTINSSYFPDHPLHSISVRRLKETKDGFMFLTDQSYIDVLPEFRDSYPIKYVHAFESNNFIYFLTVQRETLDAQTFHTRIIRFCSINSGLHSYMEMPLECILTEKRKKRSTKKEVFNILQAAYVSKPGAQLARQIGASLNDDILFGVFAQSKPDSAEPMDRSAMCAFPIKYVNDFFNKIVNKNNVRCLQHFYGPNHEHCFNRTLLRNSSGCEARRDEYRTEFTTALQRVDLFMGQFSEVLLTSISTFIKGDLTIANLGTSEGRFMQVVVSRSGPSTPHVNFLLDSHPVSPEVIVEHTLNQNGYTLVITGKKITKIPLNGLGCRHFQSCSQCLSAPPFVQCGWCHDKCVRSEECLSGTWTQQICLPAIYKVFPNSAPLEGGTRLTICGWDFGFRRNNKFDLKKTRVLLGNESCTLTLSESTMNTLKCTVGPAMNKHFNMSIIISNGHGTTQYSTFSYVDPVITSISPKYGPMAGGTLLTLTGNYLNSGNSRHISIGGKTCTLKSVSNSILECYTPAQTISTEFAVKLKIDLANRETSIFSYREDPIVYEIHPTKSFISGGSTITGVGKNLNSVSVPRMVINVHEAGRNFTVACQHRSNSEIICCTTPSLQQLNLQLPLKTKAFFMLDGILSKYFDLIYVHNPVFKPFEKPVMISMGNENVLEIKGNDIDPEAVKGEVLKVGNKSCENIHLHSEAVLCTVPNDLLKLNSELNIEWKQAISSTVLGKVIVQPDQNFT
Experiment: as above

| Binder | ECL signal |
| --- | --- |
| B12 | 309 |

Target: T6, rHuman Notch-1/Fc Chimera, CF (R&D Systems Cat#3647-TK) (human, UniProt P46531 19-526)
T6 construct: Bought recombinant protein
Experiment: as above

| Binder | ECL signal |
| --- | --- |
| B12 | 424 |

Target: T7, rHuman EGF R/Fc Chimera, CF (R&D Systems Cat#344-ER) (human, UniProt P00533 25-645)
T7 construct: Bought recombinant protein; also called epidermal growth factor receptor
Experiment: as above

| Binder | ECL signal |
| --- | --- |
| B12 | 415 |

Target: T8, rHuman ErbB2/Fc Chimera, CF (R&D Systems Cat#1129-ER) (human, UniProt P04626 23-652)
T8 construct: Bought recombinant protein; also called human epidermal growth factor 2 receptor
Experiment: as above

| Binder | ECL signal |
| --- | --- |
| B12 | 383 |

Target: T9, rHuman IGF-1 sR, (IGF-1 sR), CF (R&D Systems Cat#391-GR) (human, UniProt P08069 31-932)
T9 construct: Bought recombinant soluble receptor; also called insulin-like growth factor-1 soluble receptor
Experiment: as above

| Binder | ECL signal |
| --- | --- |
| B12 | 334 |

Target: T10, Recombinant Human DLL4 (R&D Systems Cat#1506-D4/CF) (human, UniProt Q9NR61 27-524)
T10 construct: Bought recombinant protein; also called delta-like protein 4; rHuman DLL4
Experiment: as above

| Binder | ECL signal |
| --- | --- |
| B12 | 192000 |
